In publication PMC11551748:

Target: Exportin-1 (XPO1), endogenous (UniProt O14980)
Assay: co-IP (GFP pulldown) and western blot, semi-quantification
Settings: stable U2OS cell lines, parent: est. 0.60, read off a plot

UniProt O14980, sequence (O14980 whole entry): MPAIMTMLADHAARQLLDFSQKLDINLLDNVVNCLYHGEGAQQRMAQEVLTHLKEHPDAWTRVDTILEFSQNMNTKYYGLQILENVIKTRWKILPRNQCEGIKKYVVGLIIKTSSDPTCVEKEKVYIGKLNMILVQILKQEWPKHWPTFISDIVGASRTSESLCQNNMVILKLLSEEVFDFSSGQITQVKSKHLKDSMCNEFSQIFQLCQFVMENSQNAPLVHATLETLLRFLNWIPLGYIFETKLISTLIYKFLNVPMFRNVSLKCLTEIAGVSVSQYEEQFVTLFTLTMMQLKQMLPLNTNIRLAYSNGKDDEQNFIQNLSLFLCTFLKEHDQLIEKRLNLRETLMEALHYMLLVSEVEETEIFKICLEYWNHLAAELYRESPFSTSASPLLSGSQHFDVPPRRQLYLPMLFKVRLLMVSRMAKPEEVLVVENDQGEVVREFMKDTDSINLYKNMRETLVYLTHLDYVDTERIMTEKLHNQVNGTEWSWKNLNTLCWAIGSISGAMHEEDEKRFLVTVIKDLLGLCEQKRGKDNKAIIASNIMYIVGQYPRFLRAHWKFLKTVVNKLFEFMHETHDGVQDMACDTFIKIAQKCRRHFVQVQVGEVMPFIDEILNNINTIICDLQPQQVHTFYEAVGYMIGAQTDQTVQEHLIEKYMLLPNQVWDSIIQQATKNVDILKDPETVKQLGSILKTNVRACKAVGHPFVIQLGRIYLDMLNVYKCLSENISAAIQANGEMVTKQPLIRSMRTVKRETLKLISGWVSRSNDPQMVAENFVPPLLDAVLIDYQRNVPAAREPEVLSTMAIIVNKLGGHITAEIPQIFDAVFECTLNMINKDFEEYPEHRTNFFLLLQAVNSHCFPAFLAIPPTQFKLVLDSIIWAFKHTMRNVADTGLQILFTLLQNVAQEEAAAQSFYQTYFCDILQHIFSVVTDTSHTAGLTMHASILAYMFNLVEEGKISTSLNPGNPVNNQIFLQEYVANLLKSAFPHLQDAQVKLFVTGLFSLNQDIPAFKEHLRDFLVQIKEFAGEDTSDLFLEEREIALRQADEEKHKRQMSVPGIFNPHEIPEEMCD

| Substance | response (band intensity relative to WT -ETO) |
| --- | --- |
| TIRR-GFP WT (lentivirus-integrated, U2OS) (from UniProt Q9BRJ7) K10E | 0.27 |
| TIRR-GFP WT (lentivirus-integrated, U2OS) (from UniProt Q9BRJ7) NES1 | 2.1 |
| TIRR-GFP WT (lentivirus-integrated, U2OS) (from UniProt Q9BRJ7) NES2 | 0.3 |
| TIRR-GFP WT (lentivirus-integrated, U2OS) (from UniProt Q9BRJ7) NES3 | 3.2 |
| TIRR-GFP WT (lentivirus-integrated, U2OS) (from UniProt Q9BRJ7) NES4 | 1.3 |
| TIRR-GFP WT (lentivirus-integrated, U2OS) (from UniProt Q9BRJ7) RBM | 0.9 |
